# Values quoted from earlier work, collected in patent US20100069292A1, “INSULIN WITH A BASAL RELEASE PROFILE” (Biodel, Inc., priority 2008, published 2010).
# How the values were obtained:
# [1] = patients, compared with NPH insulin
# [2] = in vivo
substance,measurement,setting,value
insulin glargine,risk of low blood glucose (hypoglycemia),[1],much lower risk of low blood glucose (hypoglycemia) than the patients who took NPH insulin
same,duration of blood glucose lowering after injection,[2],up to 24 hours
